This test has as its target BASP1 (brain acid soluble protein 1, CAP23, NAP22) (UniProt Q91XV3). The test can be described thus: peptide affinity column, brain lysate, LC-MS/MS. The note with it: reference: non-phospho peptide …; sites S351.

On to “PLPPR3 (phospholipid-phosphatase-related protein 3) (from UniProt Q7TPB0) pS351 peptide LKRApSVDVDLLA”, for which the “binding against the reference” value is on record as “stronger”.

For the origin of these results see paper PMC12496174.
